{"source": "patent US20220257632A1", "about": "“MICROLUMENAL TARGETING OF CANCER CELLS” (Fred Hutchinson Cancer Research Center, priority 2019, published 2022)", "molecules": {"B1": {"name": "interferon gamma (protein, UniProt P01579 24-161, looked up)", "Interferon gamma": "QDPYVKEAENLKKYFNAGHSDVADNGTLFLGILKNWKEESDRKIMQSQIVSFYFKLFKNFKDDQSIQKSVETIKEDMNVKFFNSNKKKRDDFEKLTNYSVTDLNVQRKAIHELIQVMAELSPAAKTGKRKRSQMLFRG", "notes": "a cytokine FDA-approved for use in patients"}, "B2": {"name": "recombinant epigen: Recombinant epigen (R&D 1127-EP), growth factor and EGFR ligand (protein, UniProt Q6UW88 23-154, looked up)", "Epigen": "AAVTVTPPITAQQGNWTVNKTEADNIEGPIALKFSHLCLEDHNSYCINGACAFHHELEKAICRCFTGYTGERCEHLTLTSYAVDSYEKYIAIGIGVGLLLSGFLVIFYCYIRKRCLKLKSPYNVCSGERRPL"}}, "key": {"MMTV-PyMT clusters [1]": {"test_system": "MMTV-PyMT clusters", "experiment": "Sulfo-NHS-biotin permeability of MMTV-PyMT clusters", "format": "cell-based, mouse", "conditions": "treatment 1 hr prior to biotin", "protocol": "(§1) FIG. 4C is a quantification of epigen immunogold signal; n=268 gold particles. To determine if microlumenal junctions were permeable, clusters were incubated with cell-impermeable sulfo-NHS-biotin. 1 mM EGTA was used as a positive control to disrupt cell-cell junctions. Biotin leak was quantified by measuring streptavidin-FITC fluorescence signal within clusters. n=3 biological replicates. n=75 clusters per condition. P-values=Mann-Whitney tests (FIG. 4D) Immunofluorescence of epigen in clusters with and without 1 mM EGTA treatment to disrupt cell-cell junctions was measured. […] P-value=Mann-Whitney test.\nThe accumulation of epigen within microlumina implied a mechanism for preventing ligand diffusion and signal reduction. To characterize the permeability of tumor cell clusters, a technique used to differentially label apical and basal proteins was adapted. Clusters were treated with a cell impermeable biotin (sulfo-NHS-biotin, 0.4 KDa) which labels membrane surface proteins but is excluded from the cytosol. At baseline, biotin was excluded from cell-cell junction membranes within MMTV-PyMT clusters and predominantly labeled the cell-matrix junction membranes (FIG. 4D).\nTo test the permeability of tumor cell clusters, NHS-biotin was added to a final concentration of 0.8 mM in PBS for 30 minutes at 37° C. […]\n(§2) Phalloidin staining and DAPI were used to define membrane and nuclear areas, respectively. Using the freehand line tool in FIJI software, lines along cell-matrix (outer membrane), cell-cell (intercellular) membranes, and intracellular (cytosolic) areas were drawn and median fluorescence intensity was measured for each channel. […] Then the polygon selection tool was used to measure FITC-streptavidin intensity in the cluster core (excluding the cell-matrix contacts) and intensity was normalized to the area measured. To assess biotin permeability in tumor vs. stroma areas, mean FITC-streptavidin signal was measured in FIJI in equally sized squares in adjacent pure tumor or pure stroma areas. […]"}, "MMTV-PyMT clusters [2]": {"test_system": "MMTV-PyMT clusters", "experiment": "Epigen immunofluorescence in MMTV-PyMT clusters after junction disruption", "format": "cell-based, mouse", "protocol": "as §1, with “test. […]” for “test.”\nas §2"}, "[3]": {"test_system": "HCC70 tumor cell clusters", "experiment": "Viable cell quantification of HCC70 clusters after 6 days of IFNγ treatment", "format": "cell-based, human", "text": "FIG. 7A is a qPCR measurement of EPGN expression in HCC70 clusters. n=3 biological replicates. P-values=unpaired t-tests. […] P-values=unpaired t-tests. FIG. 7C is a quantification of individual lung metastasis areas (lungs three weeks after tail vein injection of 200,000 Ctrl-kd or Epgn-kd HCC70 clustered cells). n (# of metastases): Ctrl-kd=299, Epgn-kd=87. n (# of mice): 7 per condition. Box plot=5-95%. P-value=Mann-Whitney test. […] Line=non-linear regression. Band=95% CI. n=3 biological replicates. P-value=extra sum-of-squares F test. […] P-value=Mann-Whitney test. FIG. 7F is a quantification of internal FITC-streptavidin intensity biotin leak-in assay of HCC70 clusters after 6 days of treatment with or without 3 ng/mL IFNγ). n=60 untreated clusters, 70 IFNγ treated clusters. n=3 biological replicates. P-value=Mann-Whitney test. FIG. 7G is a TEM of HCC70 clusters after 6 days with and without IFNγ treatment (3 ng/mL). MP=microvilli-like protrusions. J=cell-cell junctions. FIG. 7H is a qPCR of (left) RAB25 and (right) CLDN7 in HCC70 clusters after 0, 3, and 6 days with and without 3 ng/mL IFNγ treatment. n=3 biological replicates. P-value=unpaired t-test. FIGS. 7I and 7J: HCC70 single cells were aggregated for 24 hrs then treated with or without 2 ng/mL IFNγ treatment. After 6 days of treatment, clusters from each condition were injected by tail vein into NSG mice, with 200,000 viable clustered cells injected per animal. 3 weeks later, lung metastases were scored by staining for the human-specific marker CD298. Sizes of individual HCC70 metastases at 3 weeks after tail vein injection. n=8 mice/condition, 217 untreated metastases, 79 IFNγ pre-treated metastases. Box plot=5-95%. P-value=Mann-Whitney test (7I). […]\nHuman cell lines were cultured in complete media (DMEM or RPMI with penicillin/streptomycin+10% FBS) on tissue-culture treated plates, or in non-adherent plates supplemented with 2% Matrigel (v/v). […] Human organoids were cultured with 2% (v/v) or 100% growth factor reduced Matrigel (Corning) with HuMEC Ready media (Fisher 12752010)."}, "HCC70 clusters [4]": {"test_system": "HCC70 clusters", "experiment": "Biotin leak-in permeability assay of HCC70 clusters", "format": "cell-based, human", "conditions": "6 days, 3 ng/mL", "text": "FIG. 7A is a qPCR measurement of EPGN expression in HCC70 clusters. n=3 biological replicates. P-values=unpaired t-tests. […] P-values=unpaired t-tests. FIG. 7C is a quantification of individual lung metastasis areas (lungs three weeks after tail vein injection of 200,000 Ctrl-kd or Epgn-kd HCC70 clustered cells). n (# of metastases): Ctrl-kd=299, Epgn-kd=87. n (# of mice): 7 per condition. Box plot=5-95%. P-value=Mann-Whitney test. […] Line=non-linear regression. Band=95% CI. n=3 biological replicates. P-value=extra sum-of-squares F test. […] P-value=Mann-Whitney test. FIG. 7F is a quantification of internal FITC-streptavidin intensity biotin leak-in assay of HCC70 clusters after 6 days of treatment with or without 3 ng/mL IFNγ). n=60 untreated clusters, 70 IFNγ treated clusters. n=3 biological replicates. […] 3 weeks later, lung metastases were scored by staining for the human-specific marker CD298. […]\nPhalloidin staining and DAPI were used to define membrane and nuclear areas, respectively. Using the freehand line tool in FIJI software, lines along cell-matrix (outer membrane), cell-cell (intercellular) membranes, and intracellular (cytosolic) areas were drawn and median fluorescence intensity was measured for each channel. […] To assess biotin permeability in tumor vs. stroma areas, mean FITC-streptavidin signal was measured in FIJI in equally sized squares in adjacent pure tumor or pure stroma areas. […]"}, "HCC70 clusters [5]": {"test_system": "HCC70 clusters", "experiment": "qPCR of RAB25 and CLDN7 in HCC70 clusters", "format": "cell-based, human", "conditions": "3 ng/mL", "text": "(§3) FIG. 7A is a qPCR measurement of EPGN expression in HCC70 clusters. n=3 biological replicates. P-values=unpaired t-tests. […] P-values=unpaired t-tests. FIG. 7C is a quantification of individual lung metastasis areas (lungs three weeks after tail vein injection of 200,000 Ctrl-kd or Epgn-kd HCC70 clustered cells). n (# of metastases): Ctrl-kd=299, Epgn-kd=87. n (# of mice): 7 per condition. Box plot=5-95%. P-value=Mann-Whitney test. […] Line=non-linear regression. Band=95% CI. n=3 biological replicates. P-value=extra sum-of-squares F test. […] P-value=Mann-Whitney test. FIG. 7F is a quantification of internal FITC-streptavidin intensity biotin leak-in assay of HCC70 clusters after 6 days of treatment with or without 3 ng/mL IFNγ). n=60 untreated clusters, 70 IFNγ treated clusters. n=3 biological replicates. P-value=Mann-Whitney test. FIG. 7G is a TEM of HCC70 clusters after 6 days with and without IFNγ treatment (3 ng/mL). MP=microvilli-like protrusions. J=cell-cell junctions. FIG. 7H is a qPCR of (left) RAB25 and (right) CLDN7 in HCC70 clusters after 0, 3, and 6 days with and without 3 ng/mL IFNγ treatment. n=3 biological replicates. P-value=unpaired t-test. […] 3 weeks later, lung metastases were scored by staining for the human-specific marker CD298. […]\nHuman or mouse tumor cell clusters were pelleted and snap frozen in liquid nitrogen. […] Data were analyzed using the ΔΔCt method."}, "HCC70 clusters [6]": {"test_system": "HCC70 clusters", "experiment": "TEM of HCC70 clusters with and without IFNγ", "format": "cell-based, human", "conditions": "6 days, 3 ng/mL", "text": "as §3, with “t-test. FIGS. 7I and 7J: HCC70 single cells were aggregated for 24 hrs then treated with or without 2 ng/mL IFNγ treatment.” for “t-test.”"}, "HCC70 clusters [7]": {"test_system": "HCC70 clusters", "experiment": "Tail vein lung metastasis assay of IFNγ pre-treated HCC70 clusters in NSG mice", "format": "in vivo", "conditions": "clusters pre-treated 6 days at 2 ng/mL, 3 weeks", "text": "FIG. 7A is a qPCR measurement of EPGN expression in HCC70 clusters. n=3 biological replicates. P-values=unpaired t-tests. […] P-values=unpaired t-tests. FIG. 7C is a quantification of individual lung metastasis areas (lungs three weeks after tail vein injection of 200,000 Ctrl-kd or Epgn-kd HCC70 clustered cells). n (# of metastases): Ctrl-kd=299, Epgn-kd=87. n (# of mice): 7 per condition. Box plot=5-95%. P-value=Mann-Whitney test. […] Line=non-linear regression. Band=95% CI. n=3 biological replicates. P-value=extra sum-of-squares F test. […] P-value=Mann-Whitney test. FIG. 7F is a quantification of internal FITC-streptavidin intensity biotin leak-in assay of HCC70 clusters after 6 days of treatment with or without 3 ng/mL IFNγ). n=60 untreated clusters, 70 IFNγ treated clusters. n=3 biological replicates. P-value=Mann-Whitney test. […] 3 weeks later, lung metastases were scored by staining for the human-specific marker CD298. […]\nFor single cell vs. cluster experiments, mTomato-PyMT organoids were dissociated to single cells at day 0 using Accumax (20 minutes at 37° C.). […] DIC images were taken before injection and assessed to ensure similar number and size of clusters injected between conditions. 3 weeks after tail vein injection mice were euthanized and lungs imaged under a dissecting microscope for quantification of fluorescent (metastatic) area. […]"}, "MDA-MB-231 [8]": {"test_system": "MDA-MB-231", "experiment": "Viable cell quantification of MDA-MB-231 after 6 days of IFNγ treatment", "format": "cell-based, human", "conditions": "MDA-MB-231, viable cells after 6 days of treatment"}, "MDA-MB-231 [9]": {"test_system": "MDA-MB-231", "experiment": "Biotin permeability of MDA-MB-231 clusters", "format": "cell-based, human", "conditions": "MDA-MB-231, with or without treatment"}, "HCC70 clusters [10]": {"test_system": "HCC70 clusters", "experiment": "pHH3 immunofluorescence (mitotic cells) and cell death in HCC70 clusters", "format": "cell-based, human"}, "tumor cell clusters": {"test_system": "tumor cell clusters", "experiment": "Cluster outgrowth on treatment with recombinant epigen", "format": "cell-based"}, "[11]": {"conditions": "HCC70 tumor cell clusters, viable cells after 6 days of treatment"}}}
{"molecule": "C/C1=C/C(=O)O[C@@H]2C[C@@H](CC[C@H](C)/C=C\\C=C\\CC1)O[C@@](O)([C@@H]1CSC(=O)N1)C2", "note": "[Latrunculin A]", "values": [{"measurement": "biotin leak into clusters", "setting": "MMTV-PyMT clusters [1]", "value": "allowed biotin to leak between clustered cells"}]}
{"molecule": "O=C(O)CN(CCOCCOCCN(CC(=O)O)CC(=O)O)CC(=O)O", "note": "[calcium chelation, ethylene glycol-bis(β-aminoethyl ether)-N,N,N′,N′-tetraacetic acid]", "values": [{"measurement": "biotin leak into clusters", "setting": "MMTV-PyMT clusters [1]", "value": "biotin was able to leak into intercellular spaces"}, {"measurement": "epigen signal in clusters (immunofluorescence)", "setting": "MMTV-PyMT clusters [2]", "value": "marked loss of epigen signal"}]}
{"molecule": "C[C@@H]1Cc2c(Cl)cc(C(=O)N[C@@H](Cc3ccccc3)C(=O)O)c(O)c2C(=O)O1", "note": "[ochratoxin A]", "values": [{"measurement": "biotin leak into clusters", "setting": "MMTV-PyMT clusters [1]", "value": "allowed biotin to leak between clustered cells"}]}
{"molecule": "B1", "values": [{"measurement": "outgrowth", "setting": "[3]; HCC70 clusters", "value": "markedly reduced outgrowth"}, {"measurement": "IC50", "setting": "[3]; [11]", "value": 0.58, "unit": "ng/mL"}, {"measurement": "IC75", "setting": "[3]; [11]", "value": 0.97, "unit": "ng/mL"}, {"measurement": "intercellular permeability by biotin-leak assay", "setting": "HCC70 clusters [4]", "value": "increased intercellular permeability"}, {"measurement": "CLDN7 expression (qPCR)", "setting": "HCC70 clusters [5]", "value": "significant reduction"}, {"measurement": "RAB25 expression (qPCR)", "setting": "HCC70 clusters [5]", "value": "significant reduction"}, {"measurement": "microlumenal spacing and electron-dense junctions by TEM", "setting": "HCC70 clusters [6]", "value": "increased microlumenal spacing and decreased electron-dense junctions"}, {"measurement": "number of lung metastases", "setting": "HCC70 clusters [7]", "value": "fewer"}, {"measurement": "size of lung metastases", "setting": "HCC70 clusters [7]", "value": "significantly smaller"}, {"measurement": "IC50", "setting": "MDA-MB-231 [8]", "value": 4.24, "unit": "ng/mL"}, {"measurement": "IC75", "setting": "MDA-MB-231 [8]", "value": 22.3, "unit": "ng/mL"}, {"measurement": "biotin permeability", "setting": "MDA-MB-231 [9]", "value": "highly biotin-permeable in both the absence or presence of IFNγ treatment"}, {"measurement": "cell death", "setting": "HCC70 clusters [10]", "value": "not increased cell death"}, {"measurement": "proliferation (% pHH3+ nuclei)", "setting": "HCC70 clusters [10]; 6 days, 3 ng/mL", "value": "strong suppression of proliferation"}]}
{"molecule": "B2", "values": [{"measurement": "outgrowth", "setting": "tumor cell clusters", "value": "induced outgrowth in a dose-dependent manner"}]}
